T1: mouse procaspase-14 (Mus musculus, UniProt O89094)
T1 construct: made in house
T1 sequence (O89094 1-257): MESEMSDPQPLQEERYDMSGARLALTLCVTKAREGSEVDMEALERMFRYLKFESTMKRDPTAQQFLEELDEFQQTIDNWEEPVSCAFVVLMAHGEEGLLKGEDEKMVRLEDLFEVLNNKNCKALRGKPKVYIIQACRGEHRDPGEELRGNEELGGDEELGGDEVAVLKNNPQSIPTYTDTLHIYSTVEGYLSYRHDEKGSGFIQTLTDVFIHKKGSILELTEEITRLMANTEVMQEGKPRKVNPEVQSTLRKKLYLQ


Legend:
[1] = molecular target: T1, mouse procaspase-14; assay: Processing of 35S labeled procaspase-14 by Granzyme B and purified recombinant caspases; type: biochemical; conditions: Granzyme B 14 ng/μl or recombinant caspases 20 ng/μl, ICE buffer, 37° C., 1 h, FIG. 5B
Procedure: Upon expression in bacteria, all procaspases are known to autoprocess to various degrees to generate the mature caspase which is composed of the large and small subunits. The observed auto-activation in bacterial overexpression systems is probably mediated by overexpression-induced oligomerization. […] To test this possibility procaspase-14 was incubated with Granzyme B which is known to process several caspase proenzymes. In addition procaspase-14 was incubated with different purified recombinant caspases.
Processing of mouse procaspase-14 by Granzyme B and purified recombinant caspases was carried out under the following conditions: ^35S labeled procaspase-14 was incubated with purified Granzyme B (14 ng/μl) or the indicated purified recombinant caspases (20 ng/μl) in ICE buffer (25 mM Hepes, 1 mM EDTA, 5 mM DTT, 0.1% CHAPS, pH 7.5) at 37° C. for 1 h. The reactions were stopped by addition of an SDS-sample buffer and then the products were analyzed by SDS-PAGE and autoradiography.

[2] = test system: procaspase-7; assay: Processing of endogenous procaspase-7 in MCF-7-FAS cells after anti-Fas antibody or TRAIL; type: cell-based; conditions: treated for 3 h, FIG. 5C
Procedure: (§1) Since caspase-8 and -10 are initiator caspases that are activated by oligomerization of the death receptors (i.e., Fas, TRAIL-R) by their ligands or agonist antibodies, the possibility that procaspase-14 is processed in vivo after induction of apoptosis by anti-Fas antibody or the cytotoxic ligand TRAIL was tested. A mammalian expression construct encoding N-terminal T7-tagged procaspase-14 was transfected into MCF-7-FAS cells. The cells were treated 36 h after transfection with agonist anti-Fas antibody or TRAIL for 3 h. Cells were harvested and lysed by addition of SDS-sample buffer. The cellular proteins were analyzed by SDS-PAGE and then immunoblotted with an anti-T7 HRP-conjugated monoclonal antibody (FIG. 5C, left panel) to detect procaspase-14. The same samples were also immunoblotted with a polyclonal antibody (anti-Mch3α) that preferentially detects the proform of caspase-7 (FIG. 5C, middle panel), or a mixture of the anti-Mch3α antibody and CM-1 antibody that preferentially detects the processes fragments of caspase-7 (FIG. 5C, right panel) to detect the endogenous caspase-7. Pro indicates the proenzyme, LS indicates the large subunit and SS indicates the small subunit. […] The cleavage products of procaspase-14 were not clearly detectable probably due to loss of the epitope tag after processing of the small prodomain of procaspase-14 at Asp7 or Asp 17. […]

[3] = test system: procaspase-14; assay: Processing of T7-tagged procaspase-14 in MCF-7-FAS cells after anti-Fas antibody or TRAIL; type: cell-based; conditions: treated 36 h after transfection for 3 h, FIG. 5C
Procedure: as §1

[4] = test system: MCF-7 cells; assay: Overexpression of procaspases in MCF-7 cells, morphological signs of apoptosis; type: cell-based; conditions: transient transfection, X-gal staining 30 h after transfection, FIG. 4
Excerpt: On the other hand overexpression of the large prodomain initiator procaspases such as procaspase-8 can induce apoptosis, due to their ability to undergo prodomain-mediated oligomerization. To test the ability of procaspase-14 to induce apoptosis in transfected cells, MCF-7 cells were transiently transfected with procaspase-14 in a PRSC lac-Z expression construct under the CMV promoter. Cells were also transfected with an empty vector or constructs encoding procaspase-3, -6, -8, or -10 as controls. The cells were stained with X-gal 30 h after transfection and examined for morphological signs of apoptosis The percentage of round blue apoptotic cells (mean±SD) were represented as a function of total blue cells under each condition (n≧3). SD was less than 5%.

[5] = Autoprocessing of procaspases overexpressed in bacteria (SDS-PAGE, Coomassie); type: biochemical; conditions: expressed in Escherichia coli, Talon-affinity purified, FIG. 5A
[6] = test system: S100 extracts from human embryonic kidney 293 cells; assay: Cytochrome c dependent processing of procaspases in S100 extracts; type: biochemical; conditions: cytochrome c 50 ng/μl, dATP 1 mM, 30° C., 1 h, FIG. 6
Procedure: To determine if caspase-14 was activated by a way of Apaf-1 and caspase-9, cytochrome c dependent activation was tested. ^35S labeled procaspase-3 (FIG. 6, lanes 1 & 2), procaspase-7 (FIG. 6, lanes 3 & 4), or procaspase-14 (FIG. 6, lanes 5 & 6) were incubated with S100 extracts from human embryonic kidney 293 cells in the absence (−) or presence (+) of cytochrome c (50 ng/μl) and dATP (1 mM) in buffer A (20 mM Hepes, 10 mM KCl, 1.5 mM MgCl2, 1 mM EDTA, 1 mM EGTA, 1 mM DTT, 0.1 mM PMSF, pH 7.5) at 30° C. for 1 h. The reaction products were then analyzed by SDS-PAGE and autoradiography.

Molecule	processing of procaspase-14 [1]	induction of apoptosis (round blue apoptotic cells as a function of total blue cells) [4]	processing of the proenzyme on overexpression in bacteria [5]	further results
Granzyme B: purified protease known to process several caspase proenzymes	significant amount of processing			
TRAIL: cytotoxic ligand TRAIL (protein, UniProt P50591 1-281, looked up) Tumor necrosis factor ligand …: MAMMEVQGGPSLGQTCVLIVIFTVLLQSLCVAVTYVYFTNELKQMQDKYSKSGIACFLKEDDSYWDPNDEESMNSPCWQVKWQLRQLVRKMILRTSEETISTVQEKQQNISPLVRERGPQRVAAHITGTRGRSNTLSSPNSKNEKALGRKINSWESSRSGHSFLSNLHLRNGELVIHEKGFYYIYSQTYFRFQEEIKENTKNDKQMVQYIYKYTSYPDPILLMKSARNSCWSKDAEYGLYSIYQGGIFELKENDRIFVSVTNEHLIDMDHEASFFGAFLVG				processing of procaspase-7 (decreased intensity of proenzyme band) [2]: able to induce processing; processing of procaspase-14 (decreased intensity of proenzyme band) [3]: able to induce processing
procaspase-3: small prodomain executioner procaspase used as control (protein, UniProt P42574 1-277, looked up, pro-form, small prodomain executioner procaspase used as control) pro-form: MENTENSVDSKSIKNLEPKIIHGSESMDSGISLDNSYKMDYPEMGLCIIINNKNFHKSTGMTSRSGTDVDAANLRETFRNLKYEVRNKNDLTREEIVELMRDVSKEDHSKRSSFVCVLLSHGEEGIIFGTNGPVDLKKITNFFRGDRCRSLTGKPKLFIIQACRGTELDCGIETDSGVDDDMACHKIPVEADFLYAYSTAPGYYSWRNSKDGSWFIQSLCAMLKQYADKLEFMHILTRVNRKVATEFESFSFDATFHAKKQIPCIVSMLTKELYFYH		unable to induce any significant amount of apoptosis	completely processes	
procaspase-14: proenzyme of caspase-14, a cell death specific cysteine protease of the caspase family (mouse SEQ ID NO:2) (protein) KPDMESEMSDPQPLQEERYDMSGARLALTLCVTKAREGSEVDMEALERMFRYLKFESTMKRDPTAQQFLEELDEFQQTIDNWEEPVSCAFVVLMAHGEEGLLKGEDEKMVRLEDLFEVLNNKNCKALRGKPKVYIIQACRGEHRDPGEELRGNEELGGDEELGGDEVAVLKNNPQSIPTYTDTLHIYSTVEGYLSYRHDEKGSGFIQTLTDVFIHKKGSILELTEEITRLMANTEVMQEGKPRKVNPEVQSTLRKKLYLQ		unable to induce any significant amount of apoptosis	no significant processing	cleavage/activation in S-100 extracts activated by cytochrome c and dATP [6]: no cleavage/activation
caspase-14: purified recombinant caspase-14 material containing small amount of active caspase-14 (protein) KPDMESEMSDPQPLQEERYDMSGARLALTLCVTKAREGSEVDMEALERMFRYLKFESTMKRDPTAQQFLEELDEFQQTIDNWEEPVSCAFVVLMAHGEEGLLKGEDEKMVRLEDLFEVLNNKNCKALRGKPKVYIIQACRGEHRDPGEELRGNEELGGDEELGGDEVAVLKNNPQSIPTYTDTLHIYSTVEGYLSYRHDEKGSGFIQTLTDVFIHKKGSILELTEEITRLMANTEVMQEGKPRKVNPEVQSTLRKKLYLQ	Some processing			

Source: patent US6797812B2, “Caspase-14, an apoptotic protease, nucleic acids encoding and methods of use” (Thomas Jefferson University, priority 1997, dated 2004)
